These results are taken from patent US20170096652.

For this data set, the target named is transcription factor DdrO (Gene ID: 1798752; NP_296294.1) of Deinococcus radiodurans.

B1: PprI protease (gene pprI, dr_0167; GeneID: 1798483; NCBI-GI: 15805204) of Deinococcus radiodurans (protein)
chain: MPSANVSPPCPSGVRGGGMGPKAKAEASKPHPQIPVKLPFVTAPDALAAAKARMRDLAAAYVAALPGRDTHSLMAGVPGVDLKFMPLGWRDGAFDPEHNVILINSAARPERQRFTLAHEIGHAILLGDDDLLSDIHDAYEGERLEQVIETLCNVAAAAILMPEPVIAEMLERFGPTGRALAELAKRAEVSASSALYALTEQTPVPVIYAVCAPGKPPREQAASDEDAGPSTEKVLTVRASSSTRGVKYTLASGTPVPADHPAALALATGMEVREESYVPFRSGRKMKAEVDAYPSRGIVAVSFEFDPARLGRKDSEQADRDEPQDAAQ
As to B1, the “PprI cleavage activity detected by Western blotting” value is listed as “PprI cleaves DdrO into two fragments”; the “protease activity in vitro, SDS-PAGE (40 minutes, 2.0 mM MnCl2)” value is “DdrO was cleaved by PprI into two fragments”; the “protease activity in vitro, SDS-PAGE (40 minutes, 3.0 mM MnCl2)” value was “DdrO was cleaved by PprI into two fragments”; the “protease activity in vitro, SDS-PAGE (40 minutes, 5.0 mM MnCl2)” value is recorded as “DdrO was cleaved by PprI into two fragments”.
